Assay [1] addresses T1, human PD-1 (Sino Biological), coated on plates (human, UniProt Q15116 25-167).
T1 construct: whole entry named
The assay can be described thus: ELISA, plates coated with human PD-1 at 1 µg/ml. The method, then: (§1) For ELISA, plates (Nunc) were coated with human, cynomolgus or mouse PD-1 (Sino Biological) at 1 μg/ml overnight at 4° C. After blocking and washing, antibodies were serially diluted in blocking buffer and added to the plates and incubated at room temperature for 1 h. The plates were then washed and subsequently incubated with secondary antibody goat anti human IgG HRP (Bethyl) for 1 h. After washing, TMB substrate was added and the reaction was stopped by 2 M HCl. The absorbance at 450 nm was read using a microplate reader (Molecular Device).
On the technique in general: An ELISA detects its analyte on a solid surface through an enzyme-linked reagent.

In assay [2] the target is T2, mouse PD-1 on transfected 293F cells (mouse, UniProt Q02242 25-288).
T2 construct: whole, on cells; also called cell surface mouse PD-1
T2 sequence (looked up): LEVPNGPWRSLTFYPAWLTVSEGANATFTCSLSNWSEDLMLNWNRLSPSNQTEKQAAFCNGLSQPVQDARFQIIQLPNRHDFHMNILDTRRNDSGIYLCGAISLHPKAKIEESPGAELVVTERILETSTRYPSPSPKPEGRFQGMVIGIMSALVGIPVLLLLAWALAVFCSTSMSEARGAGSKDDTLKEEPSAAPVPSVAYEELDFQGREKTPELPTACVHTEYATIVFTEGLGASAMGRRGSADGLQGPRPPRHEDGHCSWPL
The assay can be described thus: flow cytometry on 293F cells expressing mouse PD-1, quantitative beads. The method, then: (§2) Testing antibodies were 1:2 serially diluted in wash buffer (1×PBS/1% BSA) and incubated with cells at 4° C. for 1 h.
In general terms: In flow cytometry, cells or beads pass a laser one at a time.

Assay [3] addresses human PD-1 antigen protein of the affinity-maturation screen (human, UniProt Q15116 25-167, limits assumed, biotinylated). As to the kind of experiment: capture ELISA, second-round affinity-maturation screen (scFv format likely); unit not given.
The target in assay [4] is cynomolgus PD-1 antigen protein of the affinity-maturation screen (cynomolgus). The description is as above.
Assay [5] addresses T3, mouse PD-1 antigen protein of the affinity-maturation screen (mouse, UniProt Q02242 25-167, limits assumed, biotinylated).
T3 sequence (looked up): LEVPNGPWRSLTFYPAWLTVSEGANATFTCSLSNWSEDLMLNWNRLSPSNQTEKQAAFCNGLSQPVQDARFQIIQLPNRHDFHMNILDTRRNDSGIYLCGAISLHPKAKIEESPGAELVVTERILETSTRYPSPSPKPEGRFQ
Described as above.

Assay [6] deals with cynomolgus PD-1 (Sino Biological), coated on plates (cynomolgus, UniProt B0LAJ3 25-170). The assay can be described thus: ELISA, plates coated with cynomolgus PD-1 at 1 µg/ml. The method, then: as §1
Chain of cynomolgus PD-1 (Sino Biological), coated on plates (B0LAJ3 entry or part of it limits assumed): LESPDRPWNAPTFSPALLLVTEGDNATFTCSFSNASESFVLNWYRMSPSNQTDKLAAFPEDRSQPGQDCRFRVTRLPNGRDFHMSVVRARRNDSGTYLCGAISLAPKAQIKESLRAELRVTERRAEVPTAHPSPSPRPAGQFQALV
Assay [7] addresses T4, human PD-1 on transfected cells (human, UniProt Q15116 25-288).
T4 construct: also called CHO-S cells expressing human PD-1; human PD-1 transfected CHO-S cells
As to the kind of experiment: FACS, human PD-1 transfected CHO-S cells.

Assay [8] addresses T4, human PD-1 on transfected cells. As to the kind of experiment: FACS competition on CHO-S cells expressing human PD-1 against biotinylated Keytruda at 1 µg/ml. The method, then:
(§3) The cells were washed and the second antibody Streptavidin-PE were added and incubated for 30 min at 4° C. The cells were then washed once and resuspended in 1×PBS/1% BSA, and analyzed by flow cytometery (BD).

The target of assay [9] is T5, human CTLA-4 on a constructed cell line (human, UniProt P16410 36-223).
T5 construct: whole, on cells
T5 sequence (P16410 36-223): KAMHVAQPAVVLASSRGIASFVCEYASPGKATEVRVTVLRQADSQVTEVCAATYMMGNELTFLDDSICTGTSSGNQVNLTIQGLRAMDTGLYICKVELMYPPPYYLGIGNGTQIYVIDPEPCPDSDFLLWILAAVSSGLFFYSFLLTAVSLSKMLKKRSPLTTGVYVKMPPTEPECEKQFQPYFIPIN
The assay can be described thus: FACS, CTLA-4.293F cells, one antibody concentration (not given). The method, then:
(§4) Constructed cell lines that respectively express human PD-1, CD28, CTLA-4 or ICOS were transferred in to 96-well U-bottom plates (BD) at a density of 2×10⁵ cells/well. Testing antibodies were diluted in wash buffer (1×PBS/1% BSA) and incubated with cells at 4° C. for 1 h. After washing, the secondary antibody goat anti-human IgG Fc FITC (Jackson ImmunoResearch Lab) was added and incubated at 4° C. in the dark for 1 h. The cells were then washed once and resuspended in 1×PBS/1% BSA, and analyzed by flow cytometery (BD) and FlowJo software.

Assay [10] addresses T2, mouse PD-1 on transfected 293F cells. The assay can be described thus: FACS, mouse PD-1 transfected 293F cells.
Assay [11] has as its target T4, human PD-1 on transfected cells. The assay can be described thus: FACS blocking assay: mouse Fc fusion-human PD-L1 binding to human PD-1 transfected CHO-S cells.
Assay [12] deals with T6, mouse PD-1 (Sino Biological), coated on plates (mouse, UniProt Q02242 25-167).
T6 sequence (looked up): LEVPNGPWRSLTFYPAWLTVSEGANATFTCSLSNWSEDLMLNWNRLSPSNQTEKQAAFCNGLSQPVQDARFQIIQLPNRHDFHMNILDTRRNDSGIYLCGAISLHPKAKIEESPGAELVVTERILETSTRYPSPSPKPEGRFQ
As to the kind of experiment: ELISA, plates coated with mouse PD-1 at 1 µg/ml. The method, then:
as §1

In assay [13] the target is T4, human PD-1 on transfected cells. As to the kind of experiment: flow cytometry on CHO-S cells expressing human PD-1, quantitative beads. The method, then: as §2
The target is the same in assay [14]. The assay can be described thus: FACS competition on CHO-S cells expressing human PD-1 against biotinylated WBP305BMK1 at 1 µg/ml. The method, then:
as §3

For assay [15], the target named is T2, mouse PD-1 on transfected 293F cells. As to the kind of experiment: FACS blocking assay: mouse Fc fusion-mouse PD-L1 binding to mouse PD-1 transfected 293F cells.
The target in another assay is T7, mPD-1.His (mouse, UniProt Q02242 25-167, limits assumed).
T7 construct: Soluble analyte, probably the extracellular domain; also called mouse PD-1 (SPR analyte)
T7 sequence (looked up): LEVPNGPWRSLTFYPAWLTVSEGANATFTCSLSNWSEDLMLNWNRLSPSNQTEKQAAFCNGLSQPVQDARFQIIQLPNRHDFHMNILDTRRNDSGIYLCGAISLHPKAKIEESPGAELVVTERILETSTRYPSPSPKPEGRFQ
As to the kind of experiment: SPR (ProteOn XPR36), antibody captured on Protein A, PD-1.His as analyte, 1:1 fit. From the text:
(§5) Antibodies were characterized for affinity and binding kinetics to PD-1 by SPR assay using ProteOn XPR36 (Bio-Rad). Protein A protein (Sigma) was immobilized to a GLM sensor chip (Bio-Rad) through amine coupling. Purified antibodies were flowed over the sensor chip and captured by the Protein A. The chip was rotated […] and washed with running buffer (1×PBS/0.01% Tween20, Bio-Rad) until the baseline was stable. Seven concentrations of human PD-1 and running buffer were flowed through the sensor chip at a flow rate of 30 μL/min for an association phase of 180 s, followed by 300s dissociation. After regeneration, seven concentration of mouse PD-1 and running buffer were flowed through the sensor chip at a flow rate of 30 μL/min for an association phase of 180 s, followed by 300 s dissociation. The chip was regenerated with pH 1.5 H₃PO₄ after each run. The association and dissociation curve was fit by 1:1 Langmuir binding model using ProteOn software.

The target of another assay is T8, hPD-1.His (human, UniProt Q15116 25-170).
T8 construct: the SPR text says only human PD-1; also called human PD-1 (SPR analyte)
T8 sequence (Q15116 25-170): as the sequence (B0LAJ3 entry or part of it limits assumed) above, with E2D, A10P, L19V, A35T, R75Q, A144T counted along it
The assay is described as above.
From the text: as §5

Assay [16] has as its target T9, human CD28 on a constructed cell line (human, UniProt P10747 19-220).
T9 construct: whole, on cells
The assay can be described thus: FACS, CD28.CHO-K1 cells, one antibody concentration (not given). The method, then:
as §4

As a reminder, the EC50 is the concentration giving half of the maximal effect. Read a low EC50 as a more potent agent. As a reminder, the Kd is a measure of binding affinity in units of concentration. For orientation: IC50 means the concentration that inhibits the measured activity by half. Lower therefore signals inhibition by little substance. Usually koff stands for the first-order rate constant of dissociation. The low end stands for a long-lived complex, the high end for a short-lived complex. By kon is commonly meant the second-order rate constant of association. Read a high kon as fast association.

T4 sequence (Q15116 25-288 limits assumed): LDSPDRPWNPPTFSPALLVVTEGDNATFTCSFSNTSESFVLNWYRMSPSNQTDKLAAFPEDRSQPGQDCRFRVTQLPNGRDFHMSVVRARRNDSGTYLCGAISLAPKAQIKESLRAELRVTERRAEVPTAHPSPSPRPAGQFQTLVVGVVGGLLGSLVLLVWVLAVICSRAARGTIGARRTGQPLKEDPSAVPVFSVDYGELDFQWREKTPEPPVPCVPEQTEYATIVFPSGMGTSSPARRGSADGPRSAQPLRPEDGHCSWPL
Chain of human PD-1 antigen protein of the affinity-maturation screen (Q15116 25-167 limits assumed): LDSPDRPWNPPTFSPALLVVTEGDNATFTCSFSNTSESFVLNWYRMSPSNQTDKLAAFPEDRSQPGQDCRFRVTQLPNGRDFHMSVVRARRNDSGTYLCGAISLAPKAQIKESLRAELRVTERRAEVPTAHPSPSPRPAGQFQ
T1 sequence (Q15116 25-167 limits assumed): as above

B1: 2E5 (antibody, human IgG4, V domains shown)
VH: QVQLVQSGAEVKKPGSSVKVSCKASGFTFTTYYISWVRQAPGQGLEYLGYINMGSGGTNYNEKFKGRVTITADKSTSTAYMELSSLRSEDTAVYYCAIIGYFDYWGQGTMVTVSS
VL: DVVMTQSPLSLPVTLGQPASISCRSSQSLLDSDGGTYLYWFQQRPGQSPRRLIYLVSTLGSGVPDRFSGSGSGTDFTLKISRVEAEDVGVYYCMQLTHWPYTFGQGTKLEIK
Turning to B1, the half-maximal effective concentration (EC50) in assay [1] was 0.18 nM; in assay [6], 0.25 nM; in assay [7], 2.2 nM; in assay [10], 12.9 nM; in [12] it was 0.37 nM. Besides, the Kd is 29 nM in assay [2], 0.23 nM in [13], 3.99 nM in the assay with mPD-1.His and 6.13 nM with hPD-1.His. The Bmax in assay [3] turned out to be 3.28; in assay [4] it was 1.72; in [5] it was 0.47. For the same molecule, the 50% inhibitory concentration (IC50) in assay [8] worked out at 9.52 nM; in [11], 2.14 nM; in assay [14], 5.84 nM; in assay [15] it was 13 nM. Further, the binding result in [9] and in assay [16] was “no binding” throughout. Further, the koff with mPD-1.His is 0.00129 s⁻¹; in the assay with hPD-1.His it was 0.00366 s⁻¹. Besides, the association rate constant (kon) was determined as 323000 M⁻¹ s⁻¹ with mPD-1.His and 597000 M⁻¹ s⁻¹ in the assay with hPD-1.His.

B2: 2B1 (antibody, V domains shown)
VH: QVQLVQSGAEVKKPGSSVKVSCKASGFTFTTYYISWVRQAPGQGLEYLGYINMGSGGTNYNEKFKGRVTITADKSTSTAYMELSSLRSEDTAVYYCAIIGYFDYWGQGTMVTVSS
VL: DVVMTQSPLSLPVTLGQPASISCRSSQSLLDSDGNTYLYWFQQRPGQSPRRLIYLVSTLGSGVPDRFSGSGSGTDFTLKISRVEAEDVGVYYCMQLTHWPYTFGQGTKLEIK
Consider B2, for which the Bmax in assay [3] amounted to 3.02; in assay [4], 1.21; in assay [5], 0.339.

B3: A6W (antibody, V domains shown)
VH: QVQLVQSGAEVKKPGSSVKVSCKASGFTFTTYYISWVRQAPGQGLEYLGYINMGSGGTNYNEKFKGRVTITADKSTSTAYMELSSLRSEDTAVYYCAILGYFDYWGQGTMVTVSS
VL: DVVMTQSPLSLPVTLGQPASISCRSSQSLLDSDGNTYLYWFQQRPGQSPRRLIYLVSTLGSGVPDRFSGSGSGTDFTLKISRVEAEDVGVYYCMQLTHWPYTFGQGTKLEIK
For the molecule B3, the figures for the Bmax in [3], in assay [4] and in [5] were 2.57, 0.0787 and 0.174, respectively.

B4: L1I (antibody, V domains shown)
VH: QVQLVQSGAEVKKPGSSVKVSCKASGFTFTTYYISWVRQAPGQGLEYLGYINMGSGGTNYNEKFKGRVTITADKSTSTAYMELSSLRSEDTAVYYCAIIGYFDYWGQGTMVTVSS
VL: DVVMTQSPLSLPVTLGQPASISCRSSQSLLDSDGNTYLYWFQQRPGQSPRRLIYLVSTLGSGVPDRFSGSGSGTDFTLKISRVEAEDVGVYYCMQLTHAPYTFGQGTKLEIK
notes: also called L11
As for B4, the Bmax in assay [3] came to 1.05; in assay [4], 0.0517.

B5: 1G10 (antibody, V domains shown)
VH: QVQLVQSGAEVKKPGSSVKVSCKASGFTFTTYYISWVRQAPGQGLEYLGYINMGSGGTNYNEKFKGRVTITADKSTSTAYMELSSLRSEDTAVYYCAILGYFDYWGQGTMVTVSS
VL: DVVMTQSPLSLPVTLGQPASISCRSSQSLLDSDGATYLYWFQQRPGQSPRRLIYLVSTLGSGVPDRFSGSGSGTDFTLKISRVEAEDVGVYYCMQLTHWPYTFGQGTKLEIK
Turning to B5, the Bmax in assay [3] was 2.6; in assay [4], 1.08; in [5] it was 0.3.

B6: 8C10 (antibody, V domains shown)
VH: QVQLVQSGAEVKKPGSSVKVSCKASGFTFTTYYISWVRQAPGQGLEYLGYINMGSGGTNYNEKFKGRVTITADKSTSTAYMELSSLRSEDTAVYYCAIIGYFDYWGQGTMVTVSS
VL: DVVMTQSPLSLPVTLGQPASISCRSSQSLLDSDGQTYLYWFQQRPGQSPRRLIYLVSTLGSGVPDRFSGSGSGTDFTLKISRVEAEDVGVYYCMQLTHENYTFGQGTKLEIK
Regarding B6, the Bmax is 2.31 in assay [3], 1.11 in [4] and 0.437 in assay [5].

B7: 5C4 (antibody, V domains shown)
VH: QVQLVQSGAEVKKPGSSVKVSCKASGFTFTTYYISWVRQAPGQGLEYLGYINMGSGGTNYNEKFKGRVTITADKSTSTAYMELSSLRSEDTAVYYCAILGYFDYWGQGTMVTVSS
VL: DVVMTQSPLSLPVTLGQPASISCRSSQSLLDSDGQTYLYWFQQRPGQSPRRLIYLVSTLGSGVPDRFSGSGSGTDFTLKISRVEAEDVGVYYCMQLTHEPYTFGQGTKLEIK
On to B7, for which the Bmax in assay [3] stood at 2.65; in assay [4], 0.258; in [5] it was 0.164.
